Experimental data taken from patent US20130337478A1.
Changes are numbered by the printed parent chain.

B1: anti IgG-CH1 VHH #01 (VHH)
VHH: QVQLQESGGGLVQAGGSLRLSCAVSGNTLSRYAMGWFRQTPGNEREFVAAIRWNNGATYYADSVEGRFTISRDSGKNTVYLQMNNLQPEDTAVYYCAGRFLGYASSNAYHEALYNYDYWGQGTQVTVSS
B2: anti IgG-CH1 VHH #88 (VHH)
VHH: QVQLQESGGGSVQAGGSLRLSCAVSGNTLSRYAMGWFRQAPGNEREFVAAIRWNNGNTYYADSVEGRFTISRYSAKNLVYLQMNSLQAEDTAIYYCAARFLPYASSNAYHEALYNYDYWGQGTQVTVSS
B3: anti IgG-CH1 VHH #87 (VHH)
VHH: QVQLQESGGGLVQAGASLRLSCEVSGNTLSQYAMGWFRQVPGHKREFVAAIRWTNGNTYYADSVEGRFTISRDSAKKTVYLQMNSLQPDDTAIYYCAARFLPYASSNAYHESLYNYDYWGQGTQVTVSS
B4: anti IgG-CH1 VHH #85 (VHH)
VHH: B1 VHH with T40A, N85S
B5: anti IgG-CH1 VHH #10 (VHH)
VHH: B1 VHH with N43K
B6: anti IgG-CH1 VHH #82 (VHH)
VHH: B2 VHH with S11L, E65K, Y73D, L78T, Y80F, A88P, I93V, Y95F
B7: anti IgG-CH1 VHH #86 (VHH)
VHH: B2 VHH with E6D, E65K, Y73D, L78T, A88P, I93V, Y95F
B8: anti IgG-CH1 VHH #19 (VHH)
VHH: B1 VHH with E65K
B9: anti IgG-CH1 VHH #84 (VHH)
VHH: B2 VHH with E6D, S11L, E65K, Y73D, L78T, A88P, I93V
B10: anti IgG-CH1 VHH #89 (VHH)
VHH: B1 VHH with T40A, A57N, E65K, G75A, N85S, G98S, G102P
B11: anti IgG-CH1 VHH #46 (VHH)
VHH: B1 VHH with N43K, Q87K
B12: anti IgG-CH1 VHH #28 (VHH)
VHH: B1 VHH with Q87K
B13: anti IgG-CH1 VHH #83 (VHH)
VHH: B2 VHH with E6D, S11L, Y73D, L78T, A88P, I93V
B14: anti IgG-CH1 VHH #55 (VHH)
VHH: B1 VHH with E65K, Q87K
B15: anti IgG-CH1 VHH #37 (VHH)
VHH: B1 VHH with N43K, E65K
B16: anti IgG-CH1 VHH #64 (VHH)
VHH: B1 VHH with N43K, E65K, Q87K
B17: anti IgG-CH1 VHH #73 (VHH)
VHH: B1 VHH with E65K, K76R, Q87K

Target: polyclonal human IgG
Test: affinity chromatography; VHH on Sepharose resin at about 15 mg/ml ligand density

B1 was tested. Which DBC (dynamic binding capacity) (mg human IgG/ml resin) did it give?
The DBC (dynamic binding capacity) (mg human IgG/ml resin) was 28.

Target: polyclonal human IgG
Test: affinity chromatography; VHH coupled to NHS-Sepharose 4B FF, polyclonal human IgG 0.5 mg/ml in PBS pH 7.4, 150 cm/hr

Which DBC (dynamic binding capacity) does the source give for B2 here?
The DBC (dynamic binding capacity) was 7.31 mg/mL.

B3 was tested. Which DBC (dynamic binding capacity) did it give?
Its DBC (dynamic binding capacity) is 5.64 mg/mL.

With B1 as the binder, how does the DBC (dynamic binding capacity) read?
Its DBC (dynamic binding capacity) is 8.74 mg/mL.

B4 was tested. Which DBC (dynamic binding capacity) did it give?
Its DBC (dynamic binding capacity) is 11.9 mg/mL.

Which DBC (dynamic binding capacity) does the source give for B5 here?
Its DBC (dynamic binding capacity) is 12 mg/mL.

B6 was tested. Which DBC (dynamic binding capacity) did it give?
The DBC (dynamic binding capacity) was 6.69 mg/mL.

How did the DBC (dynamic binding capacity) turn out when B7 was run?
The DBC (dynamic binding capacity) was 4.98 mg/mL.

With B8 as the binder, how does the DBC (dynamic binding capacity) read?
The DBC (dynamic binding capacity) was 9.4 mg/mL.

For B9, which DBC (dynamic binding capacity) is on record?
Its DBC (dynamic binding capacity) is 8.27 mg/mL.

For B10, which DBC (dynamic binding capacity) is on record?
Its DBC (dynamic binding capacity) is 5.61 mg/mL.

With B11 as the binder, how does the DBC (dynamic binding capacity) read?
The DBC (dynamic binding capacity) was 11.2 mg/mL.

With B12 as the binder, how does the DBC (dynamic binding capacity) read?
The DBC (dynamic binding capacity) was 12.5 mg/mL.

B13 was tested. Which DBC (dynamic binding capacity) did it give?
The DBC (dynamic binding capacity) was 8.46 mg/mL.

For B14, which DBC (dynamic binding capacity) is on record?
Its DBC (dynamic binding capacity) is 11.3 mg/mL.

With B15 as the binder, how does the DBC (dynamic binding capacity) read?
Its DBC (dynamic binding capacity) is 9.8 mg/mL.

How did the DBC (dynamic binding capacity) turn out when B16 was run?
Its DBC (dynamic binding capacity) is 10.2 mg/mL.

Which DBC (dynamic binding capacity) does the source give for B17 here?
Its DBC (dynamic binding capacity) is 11.7 mg/mL.
